# Assay results taken from patent publication US20100092974A1, “METHODS FOR SCREENING FOR MODULATORS OF CCRL2” (The Board of Trustees of the Leland Stanford Junior …, priority 2008, published 2010).
# Legend:
# mCRTH2 = molecular target: T1, mCRTH2 (Mus musculus, UniProt Q9Z2J6); assay: immunofluorescence-based chemerin-binding assay, mCRTH2-HA L1.2; settings: 10 nM His8-tagged chemerin, anti-His6 PE
# T1 construct: The coding regions of mCCRL2, huCCRL2, mCRTH2, and huCCR10 were amplified from genomic DNA; expressed in transfected cells
# T1 sequence (Q9Z2J6 1-382): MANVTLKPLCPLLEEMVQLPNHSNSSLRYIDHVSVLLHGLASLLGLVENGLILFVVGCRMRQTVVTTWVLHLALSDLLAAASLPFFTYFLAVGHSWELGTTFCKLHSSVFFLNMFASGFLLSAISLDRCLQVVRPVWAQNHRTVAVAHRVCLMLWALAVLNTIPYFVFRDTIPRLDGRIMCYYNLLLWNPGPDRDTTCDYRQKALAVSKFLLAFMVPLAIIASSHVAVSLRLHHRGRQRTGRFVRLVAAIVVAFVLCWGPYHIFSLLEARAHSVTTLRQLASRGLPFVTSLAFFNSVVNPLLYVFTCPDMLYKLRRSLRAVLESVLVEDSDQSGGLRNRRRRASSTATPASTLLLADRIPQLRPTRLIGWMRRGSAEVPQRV
# mCCRL2 = molecular target: T2, mCCRL2 (Mus musculus, UniProt O35457); assay: intracellular calcium mobilization, CCRL2/HEK293 transfectants; assay type: cell-based; settings: HEK293 background, alone or in combination
# T2 construct: The coding regions of mCCRL2, huCCRL2, mCRTH2, and huCCR10 were amplified from genomic DNA; expressed in transfected cells
# T2 sequence (O35457 1-360): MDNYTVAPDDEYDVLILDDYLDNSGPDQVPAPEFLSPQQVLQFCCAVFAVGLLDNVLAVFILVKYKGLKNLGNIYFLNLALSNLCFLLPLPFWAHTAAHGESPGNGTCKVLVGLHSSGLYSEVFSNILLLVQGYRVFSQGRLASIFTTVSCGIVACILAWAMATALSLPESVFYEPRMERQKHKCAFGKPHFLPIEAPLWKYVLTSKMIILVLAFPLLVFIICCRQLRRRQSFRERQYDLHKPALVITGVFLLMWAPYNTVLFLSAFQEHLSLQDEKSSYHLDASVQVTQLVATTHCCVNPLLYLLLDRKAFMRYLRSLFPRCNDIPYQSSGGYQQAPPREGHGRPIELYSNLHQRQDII
# Method: Chemoattractant-stimulated Ca^2+-mobilization was performed following Alliance for Cell Signaling protocol ID PP00000210. Cells (3×10^6/mL) were loaded with 4 μM Fluo4-AM and 0.16% Pluronic acid F-127 (Molecular Probes) in modified Iscove's medium (Iscove's medium with 1% heat inactivated bovine calf serum and 2 mM L-glutamine, Invitrogen) for 30 minutes at 37° C. The samples were mixed every 10 minutes during loading, washed once, resuspended at up to 2×10^6/mL in the same buffer, and allowed to rest in the dark for 30 minutes at room temperature. Chemoattractant-stimulated change in Ca^2+-sensitive fluorescence of Fluo-4 was measured over real-time with a FACsScan flow cytometer and CellQuest software (BD Biosciences) at room temperature under constant stirring (500 rpm). Fluorescent data were acquired continuously up to 1024 seconds at 1-second intervals. The samples were analyzed for 45 seconds to establish basal state, removed from the nozzle to add the stimuli, and then returned to the nozzle. Mean channel fluorescence over time was analyzed with FlowJo (TreeStar, Ashland, Oreg., USA) software. […] 500 μl of these chemerin-loaded cells were added to mCMKLR1/L1.2 cells loaded with Fluo4-AM, and calcium mobilization was evaluated.
# CCRL2 = molecular target: T3, CCRL2 (Mus musculus, UniProt O35457); assay: radiolabeled chemerin binding to TNFα-treated bEND3 cells; settings: cells treated 24 hours with 20 ng/ml TNFα
# T3 construct: TNFα-treated bEND3 cells acquire CCRL2 surface protein (but not CMKLR1 expression); endogenous in cells; host or cells: bEND3 mouse brain endothelioma cells treated 24 h with 20 ng/ml TNFα
# T3 sequence (O35457 1-360): T2 sequence (O35457 1-360)
# Text: FIG. 22. […] Panel A. Robust upregulation of CCRL2 RNA by microarray analysis (Affymetrix®). Panel B. TNFα-treated bEND3 cells acquire CCRL2 surface protein (but not CMKLR1 expression) as determined by mAb staining and flow cytometry. Panel C. […] CCRL2/L1.2 and empty vector pcDNA3/L1.2 transfectants are shown as controls. The mean+/−SD of triplicate wells is shown for an individual experiment. A representative data set of 2 performed with similar results is shown for parts B and C, and n=1 for part A.
# The cells were washed in PBS and stained with secondary anti-rat IgG PE or anti-mouse IgE PE (+goat IgG) for 30 min on ice, washed with PBS, stained with directly conjugated F4/80 and c-kit mAbs, and analyzed by flow cytometry. […] For competition binding assays, L1.2 cells transfected with huCCRL2, mCCRL2, or mCMKLR1 were plated into 96-well plates at 0.5×10^6 cells/well. […]. For saturation binding assays, mCCRL2/L1.2 cells were plated at 0.5×10^6 cells/well. […] Binding was terminated by washing the cells in saline buffer, and bound radioactivity was measured. Data were analyzed using Prism (GraphPad Software). Binding data (triplicate or quadruplicate wells) were fitted to one-site binding hyperbola for saturation assays, or to a one-site competition curve for competition assays. […] […].
substance,measurement,setting,value
"chemerin: protein ligand for signaling receptor CMKLR1; serum form human chemerin expressed in baculovirus-infected insect cells, His8-tag removed",chemerin binding,mCRTH2,did not bind
same,"agonism, intracellular calcium mobilization",mCCRL2,neither CCL2 nor chemerin functioned as agonists
same,chemerin binding to TNFα-treated bEND3 cells,CCRL2,bind
